Results as given in patent publication US20240261333A1 (published 2024).

How the values were obtained:
Test in all cases: co-IP with anti-FLAG, mass spectrometry; N-FLAG B3GNT2
[1] = biological target: T1, RPLP2 (UniProt P05387 1-115)
T1 construct: Endogenous protein found in the co-IP by mass spectrometry; also called NP_000995.1
Experimental: (§1) Cells were plated in 10-cm cell culture dishes and grown to 60-80% confluency. For each condition, two biological replicates were harvested for co-IP. Cells were washed with PBS and 4 mL of lysis buffer (20 mM HEPES, 1% Triton X-100, 150 mM NaCl, 1 mM EDTA, and 10% glycerol) containing protease inhibitor cocktail was added. Cells were scraped and lysate was incubated at 4° C. under rotary agitation for 1 h. Lysate was centrifuged at 14,000×g for 10 min at 4° C. Supernatant was transferred to a new tube and an aliquot was taken as the input. […] For Western blots, 10 μg/mL Chicken Anti-FLAG (Aves labs ET-DY100) and IgY control (R&D Systems AB-101-C) antibodies were biotinylated (Thermo Fisher Scientific 90407) and added to the respective conditions. Lysates with antibodies were incubated at 4° C. under rotary agitation overnight. For each mL of lysate, 50 μL of Pierce Protein A/G Magnetic Beads (Mass spectrometry; Thermo Fisher Scientific 88803) or Pierce Streptavidin Magnetic Beads (Western blot; Thermo Fisher Scientific 88817) was washed twice with lysis buffer. Lysates with antibodies were added to the beads and incubated at 4° C. under rotary agitation for 4 h. Beads were washed with lysis buffer 3 times and resuspended in lysis buffer for storage.
(§2) Magnetic beads were resuspended in 100 mM Tris pH 7.8, reduced, alkylated and digested with trypsin at 37° ° C. overnight. This solution was subjected to solid phase extraction to concentrate the peptides and remove unwanted reagents followed by injection onto a Shimadzu HPLC with fraction collector. Eight fractions were collected and after concentration were injected on a Waters NanoAcquity HPLC equipped with a self-packed Aeris 3 μm C18 analytical column 0.075 mm by 20 cm, (Phenomenex). Peptides were eluted using standard reverse-phase gradients. The effluent from the column was analyzed using a Thermo Orbitrap Elite mass spectrometer (nanospray configuration) operated in a data dependent manner for 54 minutes. The resulting fragmentation spectra were correlated against the known database using Proteome Discover 1.4 (Thermo Fisher Scientific).

[2] = biological target: T2, LYZ (UniProt P61626 19-148)
T2 construct: Protein found in the co-IP by mass spectrometry; also called NP_000230.1
T2 sequence (looked up): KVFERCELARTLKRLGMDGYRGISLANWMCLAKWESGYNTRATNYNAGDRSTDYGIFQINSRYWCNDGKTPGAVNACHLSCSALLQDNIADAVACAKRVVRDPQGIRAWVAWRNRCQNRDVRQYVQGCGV
Experimental: as §1, §2

[3] = biological target: RPS17 (UniProt P08708 2-135)
Experimental: as §1, §2

[4] = biological target: T3, HNRNPA1 (UniProt P09651 2-372)
T3 construct: Endogenous protein found in the co-IP by mass spectrometry; also called NP_112420.1
T3 sequence (P09651 2-372 limits assumed): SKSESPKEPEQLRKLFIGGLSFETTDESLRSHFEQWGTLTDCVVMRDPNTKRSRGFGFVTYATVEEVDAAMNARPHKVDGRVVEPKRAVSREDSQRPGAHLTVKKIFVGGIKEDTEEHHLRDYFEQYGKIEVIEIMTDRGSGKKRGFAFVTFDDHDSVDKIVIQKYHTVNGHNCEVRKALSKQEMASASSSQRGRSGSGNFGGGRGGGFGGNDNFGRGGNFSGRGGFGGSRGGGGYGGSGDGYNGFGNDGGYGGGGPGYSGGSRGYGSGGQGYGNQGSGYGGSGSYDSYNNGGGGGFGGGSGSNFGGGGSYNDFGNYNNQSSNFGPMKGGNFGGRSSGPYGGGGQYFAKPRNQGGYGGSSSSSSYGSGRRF
Experimental: as §1, §2

[5] = biological target: RPS15A (UniProt P62244 2-130)
Experimental: as §1, §2

[6] = biological target: T4, RPN1 (UniProt P04843 24-607)
T4 construct: Endogenous protein found in the co-IP by mass spectrometry; also called NP_002941.1
T4 sequence (looked up): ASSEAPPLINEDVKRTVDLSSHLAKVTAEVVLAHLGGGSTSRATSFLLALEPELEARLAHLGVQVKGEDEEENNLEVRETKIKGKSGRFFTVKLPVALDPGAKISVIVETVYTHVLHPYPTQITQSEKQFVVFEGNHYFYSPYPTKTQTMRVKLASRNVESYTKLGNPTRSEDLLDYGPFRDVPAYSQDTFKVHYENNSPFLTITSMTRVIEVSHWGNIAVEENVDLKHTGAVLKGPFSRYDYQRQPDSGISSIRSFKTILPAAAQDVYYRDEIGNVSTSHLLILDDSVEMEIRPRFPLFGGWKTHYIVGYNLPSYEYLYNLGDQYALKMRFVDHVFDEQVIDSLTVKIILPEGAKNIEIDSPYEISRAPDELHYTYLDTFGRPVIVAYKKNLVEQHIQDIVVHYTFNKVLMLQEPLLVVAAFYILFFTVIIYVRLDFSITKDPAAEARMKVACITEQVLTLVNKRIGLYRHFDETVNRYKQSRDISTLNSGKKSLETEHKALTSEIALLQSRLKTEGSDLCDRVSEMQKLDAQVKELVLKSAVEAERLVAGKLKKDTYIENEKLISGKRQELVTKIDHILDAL
Experimental: as §1, §2

[7] = biological target: RPL35A (UniProt P18077 1-110)
Experimental: as §1, §2

[8] = biological target: RPL36A (UniProt P83881 1-106)
Experimental: as §1, §2

[9] = biological target: RPS11 (UniProt P62280 2-158)
Experimental: as §1, §2

[10] = biological target: T5, RCC2 (UniProt Q9P258 1-522)
T5 construct: Endogenous protein found in the co-IP by mass spectrometry; also called NP_061185.1
T5 sequence (Q9P258 whole entry): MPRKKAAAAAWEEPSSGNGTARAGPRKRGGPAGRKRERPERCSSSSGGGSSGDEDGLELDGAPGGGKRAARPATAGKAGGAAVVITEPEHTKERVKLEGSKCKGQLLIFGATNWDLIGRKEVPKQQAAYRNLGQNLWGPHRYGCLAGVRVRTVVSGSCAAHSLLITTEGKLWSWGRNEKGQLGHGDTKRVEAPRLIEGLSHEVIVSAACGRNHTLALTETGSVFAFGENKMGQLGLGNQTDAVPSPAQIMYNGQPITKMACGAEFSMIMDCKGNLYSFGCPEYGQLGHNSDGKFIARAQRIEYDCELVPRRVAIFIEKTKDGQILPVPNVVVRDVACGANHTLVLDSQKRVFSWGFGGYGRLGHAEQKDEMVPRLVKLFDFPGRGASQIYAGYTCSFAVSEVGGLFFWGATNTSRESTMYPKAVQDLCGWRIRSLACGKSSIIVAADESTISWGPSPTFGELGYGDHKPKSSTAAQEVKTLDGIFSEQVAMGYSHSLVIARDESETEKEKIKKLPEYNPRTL
Experimental: as §1, §2

[11] = biological target: RPL31 (UniProt P62899 1-125)
Experimental: as §1, §2

[12] = biological target: SLIRP (UniProt Q9GZT3 1-109)
Experimental: as §1, §2

[13] = biological target: RPL11 (UniProt P62913 2-177)
Experimental: as §1, §2

T1 sequence (P05387 whole entry): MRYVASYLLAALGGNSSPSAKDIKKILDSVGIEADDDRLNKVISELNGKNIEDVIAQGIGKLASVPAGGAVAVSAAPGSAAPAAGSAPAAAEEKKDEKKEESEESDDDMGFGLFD

B1: N-terminal FLAG tagged B3GNT2 (enzyme, human, UniProt Q9NY97 1-397, looked up)
chain: MSVGRRRIKLLGILMMANVFIYFIMEVSKSSSQEKNGKGEVIIPKEKFWKISTPPEAYWNREQEKLNRQYNPILSMLTNQTGEAGRLSNISHLNYCEPDLRVTSVVTGFNNLPDRFKDFLLYLRCRNYSLLIDQPDKCAKKPFLLLAIKSLTPHFARRQAIRESWGQESNAGNQTVVRVFLLGQTPPEDNHPDLSDMLKFESEKHQDILMWNYRDTFFNLSLKEVLFLRWVSTSCPDTEFVFKGDDDVFVNTHHILNYLNSLSKTKAKDLFIGDVIHNAGPHRDKKLKYYIPEVVYSGLYPPYAGGGGFLYSGHLALRLYHITDQVHLYPIDDVYTGMCLQKLGLVPEKHKGFRTFDIEEKNKNNICSYVDLMLVHSRKPQEMIDIWSQLQSAHLKC
notes: FLAG-tagged ORF overexpressed in cells; bait of the anti-FLAG co-IP; also called N-FLAG B3GNT2; N-term FLAG; not shown: FLAG tag at the N-terminus
co-IP mass spectrometry count [1]: 6
co-IP mass spectrometry count [2]: 3
co-IP mass spectrometry count [3]: 5
co-IP mass spectrometry count [4]: 7
co-IP mass spectrometry count [5]: 3
co-IP mass spectrometry count [6]: 0
co-IP mass spectrometry count [7]: 0
co-IP mass spectrometry count [8]: 3
co-IP mass spectrometry count [9]: 13
co-IP mass spectrometry count [10]: 0
co-IP mass spectrometry count [11]: 0
co-IP mass spectrometry count [12]: 0
co-IP mass spectrometry count [13]: 5
